Patent US20090186811A1, “Y2 Selective Receptor Agonists for Therapeutic Interventions” (priority 2004, published 2009)
Non-standard residues stand in square brackets, D forms with d. Primed or numbered codes have the meaning given here. No end group written: not given here. Aoc′ = not defined here

What was measured:
[1] = target: human Y4 receptor (human), P50391; test: cell-based or functional assay
[2] = target: T1, human Y5 receptor (human), Q15761; test: cell-based or functional assay
T1 chain: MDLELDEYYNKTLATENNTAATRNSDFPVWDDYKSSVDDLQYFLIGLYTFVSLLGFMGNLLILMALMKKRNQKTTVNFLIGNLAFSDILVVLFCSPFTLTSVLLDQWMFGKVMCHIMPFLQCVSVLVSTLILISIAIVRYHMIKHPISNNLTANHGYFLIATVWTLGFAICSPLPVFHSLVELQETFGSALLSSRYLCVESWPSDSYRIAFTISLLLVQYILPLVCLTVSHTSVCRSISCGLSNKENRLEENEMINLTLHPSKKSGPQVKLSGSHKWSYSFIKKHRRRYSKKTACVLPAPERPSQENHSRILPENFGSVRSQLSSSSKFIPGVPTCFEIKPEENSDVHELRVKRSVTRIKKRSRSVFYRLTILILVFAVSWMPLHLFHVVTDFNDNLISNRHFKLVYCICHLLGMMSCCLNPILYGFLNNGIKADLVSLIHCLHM

[3] = target: T2, human Y2 receptor (human), P49146; test: cell-based or functional assay
T2 chain: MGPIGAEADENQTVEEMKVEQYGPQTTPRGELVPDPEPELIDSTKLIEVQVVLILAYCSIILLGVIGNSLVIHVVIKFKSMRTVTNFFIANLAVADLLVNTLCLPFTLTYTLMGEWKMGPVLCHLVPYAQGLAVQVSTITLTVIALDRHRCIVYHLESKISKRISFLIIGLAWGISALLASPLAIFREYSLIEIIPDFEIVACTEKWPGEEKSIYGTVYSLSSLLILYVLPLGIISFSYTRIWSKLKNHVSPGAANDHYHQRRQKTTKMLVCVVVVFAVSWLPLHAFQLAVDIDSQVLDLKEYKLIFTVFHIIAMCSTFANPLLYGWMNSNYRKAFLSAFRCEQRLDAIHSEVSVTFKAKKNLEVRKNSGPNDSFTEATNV

[4] = target: T3, human Y1 receptor (human), P25929; test: cell-based or functional assay
T3 chain: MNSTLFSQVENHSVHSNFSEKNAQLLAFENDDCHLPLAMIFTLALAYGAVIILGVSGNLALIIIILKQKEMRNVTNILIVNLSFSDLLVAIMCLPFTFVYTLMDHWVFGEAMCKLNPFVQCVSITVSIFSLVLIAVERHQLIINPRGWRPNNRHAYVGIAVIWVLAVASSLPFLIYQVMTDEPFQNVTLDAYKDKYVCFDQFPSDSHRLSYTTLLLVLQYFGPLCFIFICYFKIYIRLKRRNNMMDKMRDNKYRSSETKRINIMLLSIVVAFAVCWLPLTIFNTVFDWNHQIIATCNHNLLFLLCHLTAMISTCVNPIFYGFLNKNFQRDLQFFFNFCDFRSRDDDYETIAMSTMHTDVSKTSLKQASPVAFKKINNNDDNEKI

[5] = target: human Y4 receptor (human), P50391; test: competition binding, 125I-PP displaced, COS-7 cells with human Y4
[6] = target: T2, human Y2 receptor (human), P49146; test: competition binding, 125I-PYY displaced, COS-7 cells with human Y2

human Y4 receptor (human), P50391, sequence (P50391 whole entry): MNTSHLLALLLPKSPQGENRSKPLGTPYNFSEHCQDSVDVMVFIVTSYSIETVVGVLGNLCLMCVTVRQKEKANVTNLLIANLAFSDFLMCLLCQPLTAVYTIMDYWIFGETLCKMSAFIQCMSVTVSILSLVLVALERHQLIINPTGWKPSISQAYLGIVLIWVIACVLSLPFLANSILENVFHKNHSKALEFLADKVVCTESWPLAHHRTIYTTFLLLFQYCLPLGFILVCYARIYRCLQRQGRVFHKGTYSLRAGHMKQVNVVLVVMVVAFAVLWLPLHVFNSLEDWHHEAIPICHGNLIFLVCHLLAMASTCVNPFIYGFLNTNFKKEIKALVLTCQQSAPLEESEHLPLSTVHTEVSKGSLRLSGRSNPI

YCIK[Aoc′]RH[dC]LNLVTRQRY (cysteine pairing not given here; reading uncertain) [[Cys2, Aoc5-24, D-Cys27]PYY] gave an EC50 (inositol phosphate turnover) [1] greater than 1000 nM, an EC50 (inositol phosphate turnover) [2] greater than 1000 nM and an EC50 (inositol phosphate turnover) [3] of 3.7 nM. For the same binder, the EC50 (inositol phosphate turnover) [4] was greater than 1000 nM, the IC50 [5] was 267 nM and the IC50 [6] was 0.87 nM.
